Assay [1] addresses T1, eIF4E-Flag (yeast, UniProt P07260 1-213).
T1 sequence (looked up): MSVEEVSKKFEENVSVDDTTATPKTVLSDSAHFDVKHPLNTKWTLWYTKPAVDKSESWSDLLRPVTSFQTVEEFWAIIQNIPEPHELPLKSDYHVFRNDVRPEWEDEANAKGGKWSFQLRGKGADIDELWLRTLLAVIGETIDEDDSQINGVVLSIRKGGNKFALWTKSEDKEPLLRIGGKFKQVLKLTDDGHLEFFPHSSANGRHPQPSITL
As to the kind of experiment: co-IP + AUC; one-step anti-Flag bead purification from yeast crude extract (Tris pH 7.5, 0.15 M KCl, 2 mM MgCl2, 10% glycerol, 4°C), Flag peptide elution, then AU-FDS of the GFP fusion with AU-A230 or AU-A260 (20°C, 15,000 rpm); material migrating at 77S (monosomal translating complex); cycloheximide added to cells; cells on glucose (elongation), or glucose depleted 10 min and glucose added back for 1 min or 0 min (initiation).

The target of assay [2] is T2, Flag-PAB1 (yeast, UniProt P04147 1-577).
T2 sequence (looked up): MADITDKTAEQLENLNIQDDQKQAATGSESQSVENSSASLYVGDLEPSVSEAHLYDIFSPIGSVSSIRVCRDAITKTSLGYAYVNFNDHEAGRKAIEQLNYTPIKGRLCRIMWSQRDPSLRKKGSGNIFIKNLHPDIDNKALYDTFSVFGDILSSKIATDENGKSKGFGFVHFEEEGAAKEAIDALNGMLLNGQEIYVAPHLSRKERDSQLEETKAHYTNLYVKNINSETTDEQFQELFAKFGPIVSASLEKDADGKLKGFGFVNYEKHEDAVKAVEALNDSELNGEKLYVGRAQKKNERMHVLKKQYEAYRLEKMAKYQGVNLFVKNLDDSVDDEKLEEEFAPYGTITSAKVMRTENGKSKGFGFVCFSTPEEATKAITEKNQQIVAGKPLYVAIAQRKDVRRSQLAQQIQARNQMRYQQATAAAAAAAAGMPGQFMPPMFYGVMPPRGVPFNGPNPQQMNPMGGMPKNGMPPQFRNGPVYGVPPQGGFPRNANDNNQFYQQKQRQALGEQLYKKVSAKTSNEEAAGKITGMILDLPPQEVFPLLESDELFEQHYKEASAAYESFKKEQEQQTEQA
Described as above.

The target of assay [3] is T1, eIF4E-Flag. Briefly: co-IP + AUC; as a1, but material migrating from 90S to 200S (polysomal translating complexes); cells on glucose (elongation), or glucose depleted 10 min and glucose added back for 1 min (initiation).
Assay [4] addresses T2, Flag-PAB1. Described as above.
The target in another assay is Flag-SBP1 (yeast) (UniProt P10080). Briefly: co-IP + AUC; one-step anti-Flag bead purification from yeast crude extract (Tris pH 7.5, 0.15 M KCl, 2 mM MgCl2, 10% glycerol, 4°C), Flag peptide elution, then AU-FDS of the GFP fusion with AU-A230 or AU-A260 (20°C, 15,000 rpm); material migrating at 77S (monosomal translating complex); cycloheximide added to cells; cells on glucose (elongation), or glucose depleted 10 min and glucose added back for 1 min or 0 min (initiation).
Flag-SBP1 (yeast), sequence (P10080 whole entry, the tested form may be a part): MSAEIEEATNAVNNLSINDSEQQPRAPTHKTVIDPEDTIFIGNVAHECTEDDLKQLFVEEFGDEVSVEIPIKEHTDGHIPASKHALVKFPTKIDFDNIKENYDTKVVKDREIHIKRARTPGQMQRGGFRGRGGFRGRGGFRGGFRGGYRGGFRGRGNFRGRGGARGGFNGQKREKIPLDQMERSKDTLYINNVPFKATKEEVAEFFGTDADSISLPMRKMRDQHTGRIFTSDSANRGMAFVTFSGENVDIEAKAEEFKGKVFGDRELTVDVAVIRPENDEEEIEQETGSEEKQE

Assay [5] deals with T1, eIF4E-Flag. Briefly: co-IP + AUC; one-step anti-Flag bead purification from yeast crude extract (Tris pH 7.5, 0.15 M KCl, 2 mM MgCl2, 10% glycerol, 4°C), Flag peptide elution, then AU-FDS of the GFP fusion with AU-A230 or AU-A260 (20°C, 15,000 rpm); material migrating at 77S (monosomal translating complex); cycloheximide added to cells; cells on glucose (elongation), or glucose depleted 10 min and glucose added back for 1 min or 0 min …. Conditions: partners not purified.

Assay [6] deals with T2, Flag-PAB1. The description is as above. Conditions: partners not purified.

We go through 4 molecules from paper PMC4783044, “Stoichiometry and Change of the mRNA Closed-Loop Factors as Translating Ribosomes Transit from Initiation to Elongation” (PLoS ONE, 2016).

Like-named read-outs stand apart in the source and are kept apart here.

“SBP1-GFP (from UniProt P10080 1-294) (natural protein)”: the relative level in the 77S monosomal translating complex, mRNA set at 100 (elongation) in the assay with eIF4E-Flag [1] is under 0.3 per 100 mRNA. For the same molecule, in the assay with Flag-PAB1 [2], the relative level in the 77S monosomal translating complex, mRNA set at 100 (elongation) amounted to 2.1 per 100 mRNA and the relative level in the 77S monosomal translating complex, mRNA set at 100 (initiation) came out at 3.3 per 100 mRNA. In addition, the relative level in the polysomal translating complexes (90S to 200S), mRNA set at 100 (elongation) in the assay with eIF4E-Flag [3] was under 0.3 per 100 mRNA. In addition, in the assay with Flag-PAB1 [4], the percent of the polyadenylated polysomes that contain SBP1 is 8.6%; the relative level in the polysomal translating complexes (90S to 200S), mRNA set at 100 (elongation) turned out to be 8.3 per 100 mRNA; the relative level in the polysomal translating complexes (90S to 200S), mRNA set at 100 (initiation) came out at 11 per 100 mRNA.

For “eRF1-GFP (from UniProt P12385 1-437) (natural protein)”, the relative level in the 77S monosomal translating complex, mRNA set at 100 (elongation) in the assay with eIF4E-Flag [1] is 2.8 per 100 mRNA; in the assay with Flag-PAB1 [2] it was 0.97 per 100 mRNA; with Flag-SBP1 (yeast) it was under 0.3 per 100 mRNA. Besides, the relative level in the 77S monosomal translating complex, mRNA set at 100 (initiation) with Flag-PAB1 [2] is 0.97 per 100 mRNA. The relative level in the polysomal translating complexes (90S to 200S), mRNA set at 100 (elongation) with eIF4E-Flag [3] and in the assay with Flag-PAB1 [4] was under 0.3 per 100 mRNA in each case. In addition, the relative level in the polysomal translating complexes (90S to 200S), mRNA set at 100 (initiation) in the assay with Flag-PAB1 [4] was under 0.3 per 100 mRNA.

B1: eIF4G1-GFP (natural protein, yeast, UniProt P39935 1-952, looked up)
chain: MTDETAHPTQSASKQESAALKQTGDDQQESQQQRGYTNYNNGSNYTQKKPYNSNRPHQQRGGKFGPNRYNNRGNYNGGGSFRGGHMGANSSNVPWTGYYNNYPVYYQPQQMAAAGSAPANPIPVEEKSPVPTKIEITTKSGEHLDLKEQHKAKLQSQERSTVSPQPESKLKETSDSTSTSTPTPTPSTNDSKASSEENISEAEKTRRNFIEQVKLRKAALEKKRKEQLEGSSGNNNIPMKTTPENVEEKGSDKPEVTEKTKPAEEKSAEPEVKQETPAEEGEQGEKGQIKEESTPKVLTFAERLKLKKQQKEREEKTEGKENKEVPVQEETKSAIESAPVPPSEQVKEETEVAETEQSNIDESATTPAIPTKSDEAEAEVEAEAGDAGTKIGLEAEIETTTDETDDGTNTVSHILNVLKDATPIEDVFSFNYPEGIEGPDIKYKKEHVKYTYGPTFLLQFKDKLNVKADAEWVQSTASKIVIPPGMGRGNRSRDSGRFGNNSSRGHDFRNTSVRNMDDRANSRTSSKRRSKRMNDDRRSNRSYTSRRDRERGSYRNEEKREDDKPKEEVAPLVPSANRWVPKFKSKKTEKKLAPDGKTELLDKDEVERKMKSLLNKLTLEMFDAISSEILAIANISVWETNGETLKAVIEQIFLKACDEPHWSSMYAQLCGKVVKELNPDITDETNEGKTGPKLVLHYLVARCHAEFDKGWTDKLPTNEDGTPLEPEMMSEEYYAAASAKRRGLGLVRFIGFLYRLNLLTGKMMFECFRRLMKDLTDSPSEETLESVVELLNTVGEQFETDSFRTGQATLEGSQLLDSLFGILDNIIQTAKISSRIKFKLIDIKELRHDKNWNSDKKDNGPKTIQQIHEEEERQRQLKNNSRSNSRRTNNSSNRHSFRRDAPPASKDSFITTRTYSQRNSQRAPPPKEEPAAPTSTATNMFSALMGESDDEE
notes: eIF4G1 of yeast, GFP fusion; the printed name puts GFP after the protein; also called eIFG1; source: yeast strain carrying the GFP fusion at the chromosomal location, in crude extract
Regarding B1, the “relative level in the 77S monosomal translating complex, mRNA set at 100 (elongation)” value with eIF4E-Flag [5] was 19 per 100 mRNA; with Flag-PAB1 [6] it was 5.6 per 100 mRNA; in the assay with Flag-SBP1 (yeast) it was under 0.3 per 100 mRNA. Further, the “relative level in the 77S monosomal translating complex, mRNA set at 100 (initiation)” value amounted to 20 per 100 mRNA in the assay with eIF4E-Flag [5] and 8.7 per 100 mRNA with Flag-PAB1 [6]. For the same molecule, the “relative level in the polysomal translating complexes (90S to 200S), mRNA set at 100 (elongation)” value with eIF4E-Flag [3] (partners not purified) turned out to be 75 per 100 mRNA; with Flag-PAB1 [4] (partners not purified), 18 per 100 mRNA. In addition, the “relative level in the polysomal translating complexes (90S to 200S), mRNA set at 100 (initiation)” value with eIF4E-Flag [3] (partners not purified) was 79 per 100 mRNA; with Flag-PAB1 [4] (partners not purified) it was 26 per 100 mRNA.

B2: eIF4G2-GFP (natural protein, yeast, UniProt P39936 1-914, looked up)
chain: MTDQRGPPPPHPQQANGYKKFPPHDNQYSGANNSQPNNHYNENLYSAREPHNNKQYQSKNGKYGTNKYNNRNNSQGNAQYYNNRFNNGYRLNNNDYNPAMLPGMQWPANYYAPQMYYIPQQMVPVASPPYTHQPLNTNPEPPSTPKTTKIEITTKTGERLNLKKFHEEKKASKGEEKNDGVEQKSKSGTPFEKEATPVLPANEAVKDTLTETSNEKSTSEAENTKRLFLEQVRLRKAAMERKKNGLISETEKKQETSNHDNTDTTKPNSVIESEPIKEAPKPTGEANEVVIDGKSGASVKTPQHVTGSVTKSVTFNEPENESSSQDVDELVKDDDTTEISDTTGGKTVNKSDDETINSVITTEENTVKETEPSTSDIEMPTVSQLLETLGKAQPISDIYEFAYPENVERPDIKYKKPSVKYTYGPTFLLQFKDKLKFRPDPAWVEAVSSKIVIPPHIARNKPKDSGRFGGDFRSPSMRGMDHTSSSRVSSKRRSKRMGDDRRSNRGYTSRKDREKAAEKAEEQAPKEEIAPLVPSANRWIPKSRVKKTEKKLAPDGKTELFDKEEVERKMKSLLNKLTLEMFDSISSEILDIANQSKWEDDGETLKIVIEQIFHKACDEPHWSSMYAQLCGKVVKDLDPNIKDKENEGKNGPKLVLHYLVARCHEEFEKGWADKLPAGEDGNPLEPEMMSDEYYIAAAAKRRGLGLVRFIGYLYCLNLLTGKMMFECFRRLMKDLNNDPSEETLESVIELLNTVGEQFEHDKFVTPQATLEGSVLLDNLFMLLQHIIDGGTISNRIKFKLIDVKELREIKHWNSAKKDAGPKTIQQIHQEEEQLRQKKNSQRSNSRFNNHNQSNSNRYSSNRRNMQNTQRDSFASTKTGSFRNNQRNARKVEEVSQAPRANMFDALMNNDGDSD
notes: eIF4G2 of yeast, GFP fusion; The printed name puts GFP after the protein; also called TIF4632-GFP; source: yeast strain RP2384 (TIF4632-GFP::G418), in crude extract
With B2, the “relative level in the 77S monosomal translating complex, mRNA set at 100 (elongation)” value with eIF4E-Flag [5] was 15 per 100 mRNA; in the assay with Flag-PAB1 [6], 3.9 per 100 mRNA; with Flag-SBP1 (yeast) it was under 0.3 per 100 mRNA. The “relative level in the 77S monosomal translating complex, mRNA set at 100 (initiation)” value in the assay with eIF4E-Flag [5] worked out at 15 per 100 mRNA; with Flag-PAB1 [6] it was 6.2 per 100 mRNA. Further, the “relative level in the polysomal translating complexes (90S to 200S), mRNA set at 100 (elongation)” value with eIF4E-Flag [3] (partners not purified) was 61 per 100 mRNA; with Flag-PAB1 [4] (partners not purified) it was 9.4 per 100 mRNA. Moreover, the “relative level in the polysomal translating complexes (90S to 200S), mRNA set at 100 (initiation)” value worked out at 56 per 100 mRNA with eIF4E-Flag [3] (partners not purified) and 13 per 100 mRNA with Flag-PAB1 [4] (partners not purified).
